From PMC7864067

Molecular target: PFN2 (endogenous, isoform not told apart) (human (endogenous in HAP1)) (UniProt P35080)
Chain of UniProt P35080 (P35080 whole entry, canonical isoform): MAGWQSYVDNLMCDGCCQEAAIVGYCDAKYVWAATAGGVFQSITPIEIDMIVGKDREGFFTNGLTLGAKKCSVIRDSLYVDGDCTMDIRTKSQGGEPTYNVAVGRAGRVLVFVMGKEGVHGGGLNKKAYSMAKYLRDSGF

actin reacetylation assay in HAP1 NAA80-KO cells, 8-14 h after transfection: Ac-β-actin signal normalised to V5, compared with cells transfected with NAA80-WT, at 14 h: 64%
actin reacetylation assay in HAP1 NAA80-KO cells, 8-14 h after transfection: Ac-γ-actin signal normalised to V5, compared with cells transfected with NAA80-WT, at 14 h: 62%
Substance: V5-NAA80 (M23L) Δ238-284 (enzyme)
